# Changes are numbered by the printed parent chain. ± gives the standard deviation of the averaged measurements.
# B1: library; a variant is named by its letters at X, in order (parent)
# chain: MNIQIGELAKRTACPVVTIRFYEQEGLLPPPGRSRGNFRLYGEEHVERLQFIRHCRSLDMPLSXVRTLLSYRKRPDQDCGEVXMLLDEHXRQVESRIGALLELXHXLVELREACSGARPAQSCGILQGLSDCVCDTRGTTAHXSD
# B2: library; a variant is named by its letters at X, in order (parent)
# chain: B1 chain with X90I, X106H, L107X, G128X, D131X, D135X
# Variants of: B1
# Assay: sfGFP reporter fluorescence (15 h) (µM FITC); higher = higher leak
# Conditions: library round: Round 3b; ligand: none
# In short: (§1)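 Values are endpoint sfGFP fluorescence given as µM FITC equivalents. Fluorescence was read at 485/528 nm on a Synergy Neo2, and FITC standard curves were prepared in 50 mM sodium borate pH 8.5. Reactions of 1 μL combined BL21 Star (DE3) PANOx-SP extract, pPbrR-sfGFP reporter, 30 μg/mL GamS and linear PbrR templates (PCR-made, Echo-normalized to 5 nM), with 1 µM lead chloride, 30 µM zinc acetate or no metal, for 15 hr at 30 °C.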
row,Variant,sfGFP reporter fluorescence
1,KNAVER,0.0532 ± 0.0015
2,DIATAT,0.0409 ± 0.0016
3,KNATAP,0.052 ± 0.0055
4,KFIKAT,0.0418 ± 0.0013
5,KNAKAR,0.0687 ± 0.0037
6,KFATHT,0.0512 ± 0.0033
7,KFATHR,0.0517 ± 0.0024
8,KFATHP,0.0523 ± 0.0059
9,KIATET,0.0659 ± 0.0015
10,DNATAR,0.0439 ± 0.0034
11,DNATAT,0.0419 ± 0.0058
12,DIAKET,0.0419 ± 0.00078
13,DFITET,0.0393 ± 0.0042
14,DIAVAR,0.0429 ± 0.0036
15,KFAVHP,0.0477 ± 0.002
16,KNITET,0.0629 ± 0.0071
17,KNITER,0.0631 ± 0.0055

# Variants of: B1
# Assay: sfGFP reporter fluorescence (15 h) (µM FITC); higher = stronger transcriptional activation
# Conditions: library round: Round 3b; ligand: 1 µM Pb
# In short: as §1
row,Variant,sfGFP reporter fluorescence
1,KNAVER,0.334 ± 0.025
2,DIATAT,0.112 ± 0.0062
3,KNATAP,0.226 ± 0.015
4,KFIKAT,0.169 ± 0.015
5,KNAKAR,0.394 ± 0.045
6,KFATHT,0.558 ± 0.011
7,KFATHR,0.705 ± 0.055
8,KFATHP,0.476 ± 0.041
9,KIATET,1.15 ± 0.065
10,DNATAR,0.0477 ± 0.0023
11,DNATAT,0.0459 ± 0.0022
12,DIAKET,0.0472 ± 0.0015
13,DFITET,0.0493 ± 0.0022
14,DIAVAR,0.102 ± 0.0042
15,KFAVHP,0.656 ± 0.07
16,KNITET,0.318 ± 0.015
17,KNITER,0.311 ± 0.029

# Same assay, conditions: library round: Round 3b; ligand: 30 µM Zn
row,Variant,sfGFP reporter fluorescence
1,KNAVER,0.313 ± 0.04
2,DIATAT,0.0458 ± 0.00085
3,KNATAP,0.311 ± 0.038
4,KFIKAT,0.0513 ± 0.0024
5,KNAKAR,0.754 ± 0.11
6,KFATHT,0.137 ± 0.013
7,KFATHR,0.171 ± 0.012
8,KFATHP,0.112 ± 0.011
9,KIATET,0.0663 ± 0.0026
10,DNATAR,0.0627 ± 0.0048
11,DNATAT,0.059 ± 0.0073
12,DIAKET,0.0466 ± 0.0026
13,DFITET,0.0433 ± 0.0032
14,DIAVAR,0.047 ± 0.0015
15,KFAVHP,0.198 ± 0.014
16,KNITET,0.944 ± 0.15
17,KNITER,0.926 ± 0.12

# Variants of: B2
# Assay: sfGFP reporter fluorescence (15 h) (µM FITC); higher = higher leak
# Conditions: library round: Round 3; ligand: none
# Method: (§2)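 Cell-free biosensing: 1 µL Echo-assembled CFE reactions with linear PbrR variant templates (5 nM) and pPbrR-sfGFP reporter, with 1 µM Pb, 30 µM Zn or no ligand; endpoint sfGFP fluorescence after 15 h at 30 °C calibrated as µM FITC. Round 3 ML-predicted PbrR mutants; up to 3 biological replicates.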
row,Variant,sfGFP reporter fluorescence
1,KITLGDDR H106A,0.046 ± 0.001
2,LIKLGDDP V16C M60V E81A R111A,0.0752 ± 0.0081
3,KNRCMDDP P61N,2.26 ± 0.13
4,LILCGAAC V16C H54C C55P E81A H106A,0.0437 ± 0.0031
5,KNKLGDAP P61N L62I V108E,0.0795 ± 0.0049
6,DNKCMDAA D87E,0.936 ± 0.1
7,LIVCGAAP H54C C55P H106L,0.0444 ± 0.0015
8,KNKCIDDP M60L P61N,1.99 ± 0.26
9,KNVCGDDP M60L E81A,2.61 ± 0.12
10,DTKCGCDA,0.126 ± 0.0021
11,LCKCGAAP H54C C55P H106L,0.0458 ± 0.0017
12,KNVCMDDP V16C P61N,0.0997 ± 0.0099
13,DTKIGDDP V108L E112A,0.0428 ± 0.0025
14,DTKCGAAP,0.264 ± 0.019
15,DNRCIDAK G124A,0.395 ± 0.042
16,DTKCGSAP,0.21 ± 0.0021
17,DTKLGSPP V108L Q121A,0.0413 ± 0.00089
18,DNVCIDDA M60L,0.73 ± 0.014
19,KFVLGDDR H106N,0.0633 ± 0.0012
20,KFVLGDDA H106A,0.0507 ± 0.0013
21,DTKLGCDA Q121A,0.0408 ± 0.00071
22,DNRLGAPL,0.0656 ± 0.0041
23,LIVCGAAP V16C H54C C55P H106A,0.0452 ± 0.0017
24,LIVCGAAP V16C H54C C55P H106L,0.0465 ± 0.0015
25,DTKCGADI,0.227 ± 0.0097
26,DTKLGAPL Q121A,0.0458 ± 0.0015
27,DNKCMDAK P61D,0.53 ± 0.072

# Variants of: B2
# Assay: sfGFP reporter fluorescence (15 h) (µM FITC); higher = stronger transcriptional activation
# Conditions: library round: Round 3; ligand: 1 µM Pb
# Method: as §2
row,Variant,sfGFP reporter fluorescence
1,KITLGDDR H106A,0.452 ± 0.026
2,LIKLGDDP V16C M60V E81A R111A,0.0783 ± 0.012
3,KNRCMDDP P61N,2.97 ± 0.17
4,LILCGAAC V16C H54C C55P E81A H106A,0.0414 ± 0.0022
5,KNKLGDAP P61N L62I V108E,0.275 ± 0.019
6,DNKCMDAA D87E,2.16 ± 0.15
7,LIVCGAAP H54C C55P H106L,0.0432 ± 0.00085
8,KNKCIDDP M60L P61N,3.23 ± 0.31
9,KNVCGDDP M60L E81A,3.41 ± 0.23
10,DTKCGCDA,1.6 ± 0.12
11,LCKCGAAP H54C C55P H106L,0.0424 ± 0.0028
12,KNVCMDDP V16C P61N,0.636 ± 0.067
13,DTKIGDDP V108L E112A,0.094 ± 0.0043
14,DTKCGAAP,1.56 ± 0.061
15,DNRCIDAK G124A,1.51 ± 0.12
16,DTKCGSAP,1.43 ± 0.041
17,DTKLGSPP V108L Q121A,0.2 ± 0.0066
18,DNVCIDDA M60L,2.2 ± 0.24
19,KFVLGDDR H106N,1.16 ± 0.054
20,KFVLGDDA H106A,0.541 ± 0.028
21,DTKLGCDA Q121A,0.107 ± 0.0045
22,DNRLGAPL,0.262 ± 0.0096
23,LIVCGAAP V16C H54C C55P H106A,0.0428 ± 0.0019
24,LIVCGAAP V16C H54C C55P H106L,0.0427 ± 0.0018
25,DTKCGADI,1.54 ± 0.036
26,DTKLGAPL Q121A,0.245 ± 0.019
27,DNKCMDAK P61D,0.903 ± 0.12

# Same assay, conditions: library round: Round 3; ligand: 30 µM Zn
row,Variant,sfGFP reporter fluorescence
1,KITLGDDR H106A,0.0503 ± 0.0012
2,LIKLGDDP V16C M60V E81A R111A,0.0505 ± 0.0042
3,KNRCMDDP P61N,2.85 ± 0.064
4,LILCGAAC V16C H54C C55P E81A H106A,0.0463 ± 0.0019
5,KNKLGDAP P61N L62I V108E,1.08 ± 0.098
6,DNKCMDAA D87E,2.28 ± 0.19
7,LIVCGAAP H54C C55P H106L,0.0495 ± 0.0022
8,KNKCIDDP M60L P61N,2.88 ± 0.25
9,KNVCGDDP M60L E81A,2.76 ± 0.4
10,DTKCGCDA,1.51 ± 0.051
11,LCKCGAAP H54C C55P H106L,0.0474 ± 0.0026
12,KNVCMDDP V16C P61N,0.579 ± 0.061
13,DTKIGDDP V108L E112A,0.294 ± 0.03
14,DTKCGAAP,2.21 ± 0.16
15,DNRCIDAK G124A,2.32 ± 0.17
16,DTKCGSAP,2.22 ± 0.1
17,DTKLGSPP V108L Q121A,0.337 ± 0.004
18,DNVCIDDA M60L,2.23 ± 0.2
19,KFVLGDDR H106N,0.2633 ± 0.0014
20,KFVLGDDA H106A,0.104 ± 0.0043
21,DTKLGCDA Q121A,0.117 ± 0.0042
22,DNRLGAPL,0.905 ± 0.11
23,LIVCGAAP V16C H54C C55P H106A,0.0456 ± 0.0037
24,LIVCGAAP V16C H54C C55P H106L,0.0473 ± 0.0049
25,DTKCGADI,2.16 ± 0.09
26,DTKLGAPL Q121A,0.407 ± 0.017
27,DNKCMDAK P61D,2.24 ± 0.45

# Source: the supplement of paper PMC12783771
